# Measured values published in article PMC4792234, “Modulation of MICAL Monooxygenase Activity by its Calponin Homology Domain: Structural and Mechanistic Insights” (Scientific Reports, 2016).
# T1: MICALMO-CH (mMICAL-1 residues 2-615) (Mus musculus, UniProt Q8VDP3, Q78K)
# T1 construct: gene Mical1; MO plus CH domains, residues 2-615, Q78K to remove a protease site; extra Gly from vector; N-terminal His-tag removed with TEV; E. coli BL21, codon-optimised
# T1 sequence (Q8VDP3 2-615 Q78K): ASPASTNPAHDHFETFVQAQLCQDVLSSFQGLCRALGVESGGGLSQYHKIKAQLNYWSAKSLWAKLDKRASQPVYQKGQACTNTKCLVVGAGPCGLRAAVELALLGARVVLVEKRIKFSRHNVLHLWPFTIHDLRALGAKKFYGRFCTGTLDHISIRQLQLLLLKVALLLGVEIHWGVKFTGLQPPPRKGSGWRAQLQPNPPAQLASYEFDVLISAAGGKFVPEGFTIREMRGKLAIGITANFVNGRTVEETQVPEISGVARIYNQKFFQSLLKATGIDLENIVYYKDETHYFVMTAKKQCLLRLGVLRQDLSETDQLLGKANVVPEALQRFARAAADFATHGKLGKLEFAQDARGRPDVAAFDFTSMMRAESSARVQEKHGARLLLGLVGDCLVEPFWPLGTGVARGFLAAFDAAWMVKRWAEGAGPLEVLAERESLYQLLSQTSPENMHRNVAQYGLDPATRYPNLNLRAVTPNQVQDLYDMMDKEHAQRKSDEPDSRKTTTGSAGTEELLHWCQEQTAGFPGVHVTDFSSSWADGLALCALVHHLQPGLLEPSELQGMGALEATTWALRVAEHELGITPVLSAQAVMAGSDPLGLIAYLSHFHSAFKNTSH
# B1: MICALMO-CH (mMICAL-1 residues 2-615) (Mus musculus; Q78K) (protein)
# chain: T1 sequence (Q8VDP3 2-615 Q78K)
# notes: MO plus CH domains, residues 2-615, Q78K to remove a protease site; extra Gly from vector; N-terminal His-tag removed with TEV; E. coli BL21, codon-optimised
# B2: MICALMO (mouse MICAL-1 MO domain, residues 1-484) (Mus musculus) (protein)
# chain: MASPASTNPAHDHFETFVQAQLCQDVLSSFQGLCRALGVESGGGLSQYHKIKAQLNYWSAKSLWAKLDKRASQPVYQQGQACTNTKCLVVGAGPCGLRAAVELALLGARVVLVEKRIKFSRHNVLHLWPFTIHDLRALGAKKFYGRFCTGTLDHISIRQLQLLLLKVALLLGVEIHWGVKFTGLQPPPRKGSGWRAQLQPNPPAQLASYEFDVLISAAGGKFVPEGFTIREMRGKLAIGITANFVNGRTVEETQVPEISGVARIYNQKFFQSLLKATGIDLENIVYYKDETHYFVMTAKKQCLLRLGVLRQDLSETDQLLGKANVVPEALQRFARAAADFATHGKLGKLEFAQDARGRPDVAAFDFTSMMRAESSARVQEKHGARLLLGLVGDCLVEPFWPLGTGVARGFLAAFDAAWMVKRWAEGAGPLEVLAERESLYQLLSQTSPENMHRNVAQYGLDPATRYPNLNLRAVTPNQVQDLYD
# notes: isolated N-terminal FAD monooxygenase domain, residues 1-484 of 1048
# Assays:
# [1] = molecular target: T1, MICALMO-CH (mMICAL-1 residues 2-615); experiment: X-ray crystallography, […] and […] Å; type: binding; conditions: oxidised FAD in the MO domain; two crystal forms
# [2] = substrate: NC(=O)C1=CN([C@@H]2O[C@H](COP(=O)(O)OP(=O)(O)OC[C@H]3O[C@@H](n4cnc5c(N)ncnc54)[C@H](OP(=O)(O)O)[C@@H]3O)[C@@H](O)[C@H]2O)C=CC1; experiment: purified protein; type: biochemical, Mus musculus; conditions: no F-actin, O2 as acceptor, 5 mM Tris-HCl pH 8.0, 50 mM KCl, 2 mM MgCl2, 0.2 mM CaCl2, 0.5 mM DTT, 1 mM ATP, 600 nM enzyme
Molecule,"X-ray crystallography, 2.31 and 2.88 Å [1]",Km [2],kcat [2]
Cc1cc2nc3c(=O)[nH]c(=O)nc-3n(C[C@H](O)[C@H](O)[C@H](O)COP(=O)(O)OP(=O)(O)OC[C@H]3O[C@@H](n4cnc5c(N)ncnc54)[C@H](O)[C@@H]3O)c2cc1C [FAD],In both crystal forms the FAD cofactor is oxidized and accessible through two openings,,
B1,,37.7 ± 8.4 µM,1.7 ± 0.5 s⁻¹
B2,,28.8 ± 2.2 µM,0.68 ± 0.02 s⁻¹
